The data set deals with the molecule itself. Put plainly: self-assembly of CT-B subunits, pH shift, SDS-PAGE and Western blot. For orientation: A western blot detects proteins with antibodies after separation by electrophoresis.

B1: native CT-B protein (other)
chain: TPQNITDLCAEYHNTQIYTLNDKIFSYTESLAGKREMAIITFKNGAIFQVEVPGSQHIDSQKKAIERMKDTLRIAYLTEAKVEKLCVWNNKTPHAIAAISMAN
On to B1, for which the binding result is listed as “binds”.

For the origin of these results see patent publication US12030920 (IN3BIO, dated 2024).
